This test addresses Galanin receptor of rat ileum (rat). Kind of test: cell-based or functional assay.

Substance Galanin (peptide) gave an Agonism (contraction of rat ileum), galanin 0.1 µM of 100% and an Agonism, average of two preparations, galanin 0.1 µM of 100%.

These data come from US6767890.
